Test [1] concerns the target T1, hexahistidine tagged human IL-4Rα ECD K2D (human, UniProt P24394 26-232).
T1 construct: not shown: hexahistidine tag
The test can be described thus: capture ELISA: Ab1 on anti-human IgG Fc, His-tagged receptor at 0.2 µg/mL, anti-His HRP. From the text:
(§1) Example 2d. […] Briefly, thirty surface amino acid residue substitutions were introduced individually into hexahistidine tagged human IL-4Rα extra cellular domain (ECD) as follows: K2D, E6R, K22D, P26R, T31R, F41A, L42G, L43G, E45R, E52R, G56R, D66R, A71R, Q82G, K87D, E94R, H107A, D108R, P124R, D125R, D143R, R148D, L155R, R160D, S164R, S168R, Q181R, P192R, K195D, or H197G. Each mutant protein having a single amino acid residue substitution as described above was transiently expressed in CHO cells and purified using standard immobilized metal affinity chromatography techniques. […] The plates were then washed 3 times with PBST and the exemplified human IL-4Rα antibody was added to the wells at a final concentration of 1 μg/mL in PBS-casein and incubated for 1 hour at room temperature. The plates were washed 3 times with PBST, the IL-4Rα mutant proteins were serially diluted 5-fold from 1 μg/mL for 3 points. in PBS-casein and added to the plate at 50 μL/well and incubated for 1 hour at room temperature. The plates were washed 3 times with PBST and a 1000-fold dilution of anti-histidine tag antibody HRP conjugate (R&D Systems, Cat. #MAB050H) in PBS-casein was added and incubated for 45 minutes at room temperature. The plates were washed 3 times, TMB substrate (Pierce, Cat. #34028) was added per manufacturer instructions, the reaction was quenched with H₂SO₄, and absorbance was read at 450 nm on an ELISA plate reader.
On the technique in general: In an ELISA, binding on a coated surface is turned into a signal by an enzyme label.

Test [2] has as its target T2, hexahistidine tagged human IL-4Rα ECD K22D (human, UniProt P24394 26-232).
T2 construct: not shown: hexahistidine tag
Described as above.
Source text: as §1

The target in test [3] is T3, hexahistidine tagged human IL-4Rα ECD P26R (human, UniProt P24394 26-232).
T3 construct: not shown: hexahistidine tag
T3 sequence (P24394 26-232 P51R): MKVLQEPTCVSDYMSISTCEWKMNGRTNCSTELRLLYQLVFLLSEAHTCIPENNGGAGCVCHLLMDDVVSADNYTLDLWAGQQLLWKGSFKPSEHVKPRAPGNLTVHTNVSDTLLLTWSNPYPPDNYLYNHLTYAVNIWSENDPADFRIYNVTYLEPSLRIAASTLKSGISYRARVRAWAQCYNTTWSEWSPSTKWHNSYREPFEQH
The description is as above.
Source text: as §1

The target in test [4] is T4, hexahistidine tagged human IL-4Rα ECD L42G (human, UniProt P24394 26-232).
T4 construct: not shown: hexahistidine tag
T4 sequence (P24394 26-232 L67G): as the sequence (P24394 26-232 P51R) above, with R26P, L42G counted along it
The test is described as above.
Source text: as §1

In test [5] the target is T5, hexahistidine tagged human IL-4Rα ECD L43G (human, UniProt P24394 26-232).
T5 construct: not shown: hexahistidine tag
T5 sequence (P24394 26-232 L68G): as the sequence (P24394 26-232 P51R) above, with R26P, L43G counted along it
Described as above.
Source text: as §1

Test [6] concerns the target T6, hexahistidine tagged human IL-4Rα ECD Q82G (human, UniProt P24394 26-232).
T6 construct: not shown: hexahistidine tag
The test is described as above.
Source text: as §1

Test [7] deals with T7, hexahistidine tagged human IL-4Rα ECD P124R (human, UniProt P24394 26-232).
T7 construct: not shown: hexahistidine tag
T7 sequence (P24394 26-232 P149R): as the sequence (P24394 26-232 P51R) above, with R26P, P124R counted along it
The test is described as above.
Source text: as §1

For test [8], the target named is T8, hexahistidine tagged human IL-4Rα ECD D143R (human, UniProt P24394 26-232).
T8 construct: not shown: hexahistidine tag
T8 sequence (P24394 26-232 D168R): as the sequence (P24394 26-232 P51R) above, with R26P, D143R counted along it
The description is as above.
Source text: as §1

The target in test [9] is T9, hexahistidine tagged human IL-4Rα ECD R148D (human, UniProt P24394 26-232).
T9 construct: not shown: hexahistidine tag
T9 sequence (P24394 26-232 R173D): as the sequence (P24394 26-232 P51R) above, with R26P, R148D counted along it
The test is described as above.
Source text: as §1

Test [10] addresses T10, hexahistidine tagged human IL-4Rα ECD S168R (human, UniProt P24394 26-232).
T10 construct: not shown: hexahistidine tag
Described as above.
Source text: as §1

Test [11] concerns the target T11, hexahistidine tagged human IL-4Rα ECD T108R (human, UniProt P24394 26-232).
T11 construct: also called D108R; not shown: hexahistidine tag
The test can be described thus: capture ELISA: Ab1 on anti-human IgG Fc, His-tagged receptor at 0.04 µg/mL, anti-His HRP.

T6 sequence (P24394 26-232 Q107G): as the sequence (P24394 26-232 P51R) above, with R26P, Q82G counted along it
T2 sequence (P24394 26-232 K47D): as the sequence (P24394 26-232 P51R) above, with K22D, R26P counted along it
T10 sequence (P24394 26-232 S193R): as the sequence (P24394 26-232 P51R) above, with R26P, S168R counted along it
T1 sequence (P24394 other isoform, or with tags, fused parts or gaps): as the sequence (P24394 26-232 P51R) above, with K2D, R26P counted along it

B1: anti-human IL-4Rα antibody Ab1 (antibody, human IgG4 S228P, kappa)
heavy: QVQLVESGGGLVQPGGSLRLSCVASGFTFSHSSMNWVRQAPGKGLEWVSYISRATGAVYYADSVKGRFTISRDNAKNSLYLQMNSLRDEDTAVYYCAREPVFDYWGQGTLVTVSSASTKGPCVFPLAPCSRSTSESTAALGCLVKDYFPEPVTVSWNSGALTSGVHTFPAVLQSSGLYSLSSVVTVPSSSLGTKTYTCNVDHKPSNTKVDKRVESKYGPPCPPCPAPEFLGGPSVFLFPPKPKDTLMISRTPEVTCVVVDVSQEDPEVKFNWYVDGVEVHNAKTKPREEQFNSTYRVVSVLTVLHQDWLNGKEYKCKVSNKGLPSSIEKTISKAKGQPREPQVYTLPPSREEMTKNQVSLTCLVKGFYPSDICVEWESNGQPENNYKTTPPVLDSDGSFFLYSRLTVDKSRWQQGNVFSCSVMHEALHNHYTQKSLSLSLG
light: DIQMTQSPSAMSASVGDRVTITCRASQDISNYLAWFQQKPGKVPTRLIYAASSLQSGVPSRFSGSGSGTEFTLTISSLQPEDFATYYCLQWSSYPRTFGQGTKVEIKRTVAAPSVFIFPPSDEQLKSGTASVVCLLNNFYPREAKVQWKVDNALQSGNSQESVTEQDSKDSTYSLSSTLTLSKADYEKHKVYACEVTHQGLSSPVTKSFNRGEC
notes: human kappa light chain; also called anti-human IL-4Rα Ab1; unconjugated Ab1
Regarding B1, the “ELISA (OD450)” value in test [1] was determined as 1.61 OD450; in [2] it was 1.3 OD450; in test [3] it was 1.52 OD450; in [4], 1.48 OD450; in [5], 1.7 OD450; in test [6], 1.53 OD450. The “ELISA (OD450)” value in test [7] was found to be 1.7 OD450; in test [8], 1.69 OD450; in test [9] it was 1.6 OD450; in test [10], 1.71 OD450; in [11] it was 1.41 OD450.
